Assay [1] addresses T1, FUS-SNAP, P35637.
T1 chain: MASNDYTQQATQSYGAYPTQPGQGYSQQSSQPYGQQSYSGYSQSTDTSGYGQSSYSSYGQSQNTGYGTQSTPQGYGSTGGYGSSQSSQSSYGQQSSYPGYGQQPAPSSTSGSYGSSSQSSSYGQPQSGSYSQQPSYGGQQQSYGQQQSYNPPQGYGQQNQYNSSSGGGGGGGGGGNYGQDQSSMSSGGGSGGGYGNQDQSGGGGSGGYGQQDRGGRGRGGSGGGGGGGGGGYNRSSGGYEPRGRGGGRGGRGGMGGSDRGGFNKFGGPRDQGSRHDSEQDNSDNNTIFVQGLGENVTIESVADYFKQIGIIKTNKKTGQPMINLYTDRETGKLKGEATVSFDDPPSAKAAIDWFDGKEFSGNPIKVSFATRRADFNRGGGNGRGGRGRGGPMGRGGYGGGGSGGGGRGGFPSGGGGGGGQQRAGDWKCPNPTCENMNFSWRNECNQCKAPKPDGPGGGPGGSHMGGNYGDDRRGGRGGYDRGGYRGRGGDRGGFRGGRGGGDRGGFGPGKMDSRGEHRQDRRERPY
The assay is described as follows: nanoparticle tracking analysis. As to conditions: remark: other sources report otherwise.

Assay [2] has as its target T1, FUS-SNAP, P35637. The assay is described as follows: dynamic light scattering. As to conditions: remark: other sources report otherwise.

B1: FUS-SNAP, P35637 1-526 (natural protein)
chain: T1 chain
In assay [1], B1 had a percent of the protein molecules in mesoscale clusters (250 nM FUS-SNAP) of 0.15%. In assay [2], this molecule showed a stoichiometry N (molecules per cluster) of under 10.

These data come from article PMC9282234.
